{"source": "patent US20110229525A1", "about": "(VANDERBILT UNIVERSITY, published 2011)", "binders": {"B1": {"name": "CP-SOCS1 (recombinant cell-penetrating murine SOCS1 with MTM and 6x histidine tag) (other, human;murine, UniProt P08620 7-22, looked up, not shown: small tags and cut ends)", "chain": "AAVALLPAVLLALLAPMVARNQVAADNAISPAAEPRRRSEPSSSSSSSSPAAPVRPRPCPAVPAPAPGDTHFRTFRSHSDYRRITRTSALLDACGFYWGPLSVHGAHERLRAEPVGTFLVRDSRQRNCFFALSVKMASGPTSIRVHFQAGRFHLDGSRETFDCLFELLEHYVAAPRRMLGAPLRQRRVRPLQELCRQRIVAAVGRENLARIPLNPVLRDYLSSFPFQI"}}, "target": "JAK2 (UniProt Q62120 1-1132)", "sequence (Q62120 whole entry)": "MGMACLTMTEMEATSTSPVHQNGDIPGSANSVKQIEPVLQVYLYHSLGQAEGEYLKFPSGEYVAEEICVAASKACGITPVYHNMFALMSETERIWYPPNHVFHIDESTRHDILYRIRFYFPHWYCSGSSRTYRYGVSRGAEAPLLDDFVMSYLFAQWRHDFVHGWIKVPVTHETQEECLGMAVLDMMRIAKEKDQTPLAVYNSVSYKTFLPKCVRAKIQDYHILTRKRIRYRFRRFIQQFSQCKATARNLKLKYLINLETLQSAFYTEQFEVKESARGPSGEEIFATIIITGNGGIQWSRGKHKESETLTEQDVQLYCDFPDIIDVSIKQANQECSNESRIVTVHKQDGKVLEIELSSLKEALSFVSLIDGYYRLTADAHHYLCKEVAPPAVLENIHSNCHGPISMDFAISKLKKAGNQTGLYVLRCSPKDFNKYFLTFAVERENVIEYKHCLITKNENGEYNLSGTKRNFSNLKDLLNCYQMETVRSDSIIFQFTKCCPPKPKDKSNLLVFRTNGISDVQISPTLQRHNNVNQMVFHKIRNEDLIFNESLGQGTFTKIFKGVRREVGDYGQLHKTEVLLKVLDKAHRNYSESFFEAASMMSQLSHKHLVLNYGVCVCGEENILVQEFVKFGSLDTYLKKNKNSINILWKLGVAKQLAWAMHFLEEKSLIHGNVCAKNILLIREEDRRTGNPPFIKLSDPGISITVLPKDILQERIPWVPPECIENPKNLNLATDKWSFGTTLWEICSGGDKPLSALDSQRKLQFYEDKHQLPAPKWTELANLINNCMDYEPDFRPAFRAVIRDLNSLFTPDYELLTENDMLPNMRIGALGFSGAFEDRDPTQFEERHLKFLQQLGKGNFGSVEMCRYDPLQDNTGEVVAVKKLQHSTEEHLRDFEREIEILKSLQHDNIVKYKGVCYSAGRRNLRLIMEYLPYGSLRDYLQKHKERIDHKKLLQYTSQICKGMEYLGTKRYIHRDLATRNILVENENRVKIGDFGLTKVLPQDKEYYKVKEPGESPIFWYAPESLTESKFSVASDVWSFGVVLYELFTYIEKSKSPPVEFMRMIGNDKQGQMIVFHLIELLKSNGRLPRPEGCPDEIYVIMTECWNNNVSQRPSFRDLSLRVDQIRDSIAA", "experiment": "cell-based or functional assay", "data": [{"binder": "B1", "values": [{"measurement": "concentration of CP-SOCS1 that inhibited phosphorylation of STAT1 by 50% (IC50), AMJ2.C8 macrophages stimulated with IFN-g and LPS", "result": "< 1.9", "unit": "mM"}]}]}
